Assay results from US20250101135A1 (Hoffmann-La Roche, published 2025).

T1: huCD19 ECD (human, UniProt P15391 20-291)
T1 construct: extracellular domain
T1 sequence (looked up): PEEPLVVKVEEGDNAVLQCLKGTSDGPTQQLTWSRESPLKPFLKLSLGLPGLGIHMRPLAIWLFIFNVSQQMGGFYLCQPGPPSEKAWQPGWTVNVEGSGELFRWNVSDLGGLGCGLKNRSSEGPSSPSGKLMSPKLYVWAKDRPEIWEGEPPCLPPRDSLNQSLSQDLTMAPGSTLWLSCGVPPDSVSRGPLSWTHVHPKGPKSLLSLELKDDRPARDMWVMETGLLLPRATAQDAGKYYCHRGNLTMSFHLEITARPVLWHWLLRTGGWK

T2: human CD19 (recombinant, form not given) (human, UniProt P15391 20-291, limits assumed)
T2 construct: also called huCD19
T2 sequence (looked up): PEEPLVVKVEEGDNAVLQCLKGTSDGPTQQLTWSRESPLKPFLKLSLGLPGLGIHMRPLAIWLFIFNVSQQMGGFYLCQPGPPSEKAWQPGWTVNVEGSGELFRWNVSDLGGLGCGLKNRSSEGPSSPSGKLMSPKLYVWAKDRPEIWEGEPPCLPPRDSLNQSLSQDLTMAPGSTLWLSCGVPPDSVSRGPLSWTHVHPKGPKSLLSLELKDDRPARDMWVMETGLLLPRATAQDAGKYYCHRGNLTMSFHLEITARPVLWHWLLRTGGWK


Experiments:
[1] = target: T3, mouse 4-1BB on activated mouse splenocytes (mouse, UniProt P20334 24-256); assay: flow cytometry on activated mouse splenocytes, 4-1BB+ CD8+ T cells
T3 construct: whole, on cells; also called murine 4-1BB
T3 sequence (P20334 24-256): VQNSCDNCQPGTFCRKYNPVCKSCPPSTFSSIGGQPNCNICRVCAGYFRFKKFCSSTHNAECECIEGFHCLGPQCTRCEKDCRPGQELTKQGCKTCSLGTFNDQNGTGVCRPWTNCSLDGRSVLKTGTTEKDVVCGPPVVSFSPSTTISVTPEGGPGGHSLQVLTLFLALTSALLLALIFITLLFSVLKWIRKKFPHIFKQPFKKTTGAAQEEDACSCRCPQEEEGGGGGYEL

[2] = target: T4, human fibroblast activation protein (FAP) on cells (human, UniProt Q12884 1-760); assay: flow cytometry on FAP+ MV-3 cells
T4 construct: also called human FAP; huFAP

[3] = target: T4, human fibroblast activation protein …; assay: flow cytometry on FAP+ WM-266-4 cells
[4] = target: T3, mouse 4-1BB on activated mouse …; assay: flow cytometry on activated mouse splenocytes, 4-1BB+ CD4+ T cells
cyCD19 ECD = target: T5, cyCD19 ECD (cynomolgus); assay: binding to CD19 ECD, assay not described
T5 construct: extracellular domain; also called cynomolgus CD19

huCD19 ECD = target: T1, huCD19 ECD; assay: binding to CD19 ECD, assay not described
[5] = target: T2, human CD19 (recombinant, form not …); assay: BIACORE (SPR), format not described
[6] = target: T2, human CD19 (recombinant, form not …); assay: relative binding after incubation, method not described

| Binder | EC50 [1] | EC50 [2] | EC50 [3] | EC50 [4] | EC50 (cyCD19 ECD) | EC50 (huCD19 ECD) | Kd [5] | t1/2 [5] | human CD19 binding after pH 6.0 incubation [%] [6] | human CD19 binding after pH 7.4 incubation [%] [6] |
| --- | --- | --- | --- | --- | --- | --- | --- | --- | --- | --- |
| FAP-targeted murine 4-1BB ligand trimer-containing Fc fusion antigen binding molecule Construct M.1 (Fc fusion, murine IgG1 DD/KK, DAPG; anti-FAP 28H1) chain 1: RTEPRPALTITTSPNLGTRENNADQVTPVSHIGSPNTTQQGSPVFAKLLAKNQASLSNTTLNWHSQDGAGSSYLSQGLRYEEDKKELVVDSPGLYYVFLELKLSPTFTNTGHKVQGWVSLVLQAKPQVDDFDNLALTVELFPSSMENKLVDRSWSQLLLLKAGHRLSVGLRAYLHGAQDAYRDWELSYPNTTSFGLFLVKPDNPWEGGGGSGGGGSRTEPRPALTITTSPNLGTRENNADQVTPVSHIGSPNTTQQGSPVFAKLLAKNQASLSNTTLNWHSQDGAGSSYLSQGLRYEEDKKELVVDSPGLYYVFLELKLSPTFTNTGHKVQGWVSLVLQAKPQVDDFDNLALTVELFPSSMENKLVDRSWSQLLLLKAGHRLSVGLRAYLHGAQDAYRDWELSYPNTTSFGLFLVKPDNPWEGGGGSGGGGSRADAAPTVSIFPPSSEQLTSGGASVVCFLNNFYPKDINVKWKIDGSERQNGVLNSWTDQDSKDSTYSMSSTLTLTKDEYERHNSYTCEATHKTSTSPIVKSFNRNECVPRDCGCKPCICTVPEVSSVFIFPPKPKDVLTITLTPKVTCVVVAISKDDPEVQFSWFVDDVEVHTAQTKPREEQINSTFRSVSELPIMHQDWLNGKEFKCRVNSAAFGAPIEKTISKTKGRPKAPQVYTIPPPKEQMAKDKVSLTCMITNFFPEDITVEWQWNGQPAENYDNTQPIMDTDGSYFVYSDLNVQKSNWEAGNTFTCSVLHEGLHNHHTEKSLSHSPGK chain 2: RTEPRPALTITTSPNLGTRENNADQVTPVSHIGSPNTTQQGSPVFAKLLAKNQASLSNTTLNWHSQDGAGSSYLSQGLRYEEDKKELVVDSPGLYYVFLELKLSPTFTNTGHKVQGWVSLVLQAKPQVDDFDNLALTVELFPSSMENKLVDRSWSQLLLLKAGHRLSVGLRAYLHGAQDAYRDWELSYPNTTSFGLFLVKPDNPWEGGGGSGGGGSAKTTPPSVYPLAPGSAAQTNSMVTLGCLVKGYFPEPVTVTWNSGSLSSGVHTFPAVLQSDLYTLSSSVTVPSSTWPSQTVTCNVAHPASSTKVDKKIVPRDC heavy: EVQLLESGGGLVQPGGSLRLSCAASGFTFSSHAMSWVRQAPGKGLEWVSAIWASGEQYYADSVKGRFTISRDNSKNTLYLQMNSLRAEDTAVYYCAKGWLGNFDYWGQGTLVTVSSAKTTPPSVYPLAPGSAAQTNSMVTLGCLVKGYFPEPVTVTWNSGSLSSGVHTFPAVLQSDLYTLSSSVTVPSSTWPSQTVTCNVAHPASSTKVDKKIVPRDCGCKPCICTVPEVSSVFIFPPKPKDVLTITLTPKVTCVVVAISKDDPEVQFSWFVDDVEVHTAQTKPREEQINSTFRSVSELPIMHQDWLNGKEFKCRVNSAAFGAPIEKTISKTKGRPKAPQVYTIPPPKKQMAKDKVSLTCMITNFFPEDITVEWQWNGQPAENYKNTQPIMKTDGSYFVYSKLNVQKSNWEAGNTFTCSVLHEGLHNHHTEKSLSHSPGK light: EIVLTQSPGTLSLSPGERATLSCRASQSVSRSYLAWYQQKPGQAPRLLIIGASTRATGIPDRFSGSGSGTDFTLTISRLEPEDFAVYYCQQGQVIPPTFGQGTKVEIKRADAAPTVSIFPPSSEQLTSGGASVVCFLNNFYPKDINVKWKIDGSERQNGVLNSWTDQDSKDSTYSMSSTLTLTKDEYERHNSYTCEATHKTSTSPIVKSFNRNEC | 0.87 nM | 7.26 nM | 5.14 nM | 0.52 nM |  |  |  |  |  |  |
| FAP-targeted murine 4-1BB ligand trimer-containing Fc fusion antigen binding molecule Construct M.2 (Fc fusion) chain 1: RTEPRPALTITTSPNLGTRENNADQVTPVSHIGCPNTTQQGSPVFAKLLAKNQASLSNTTLNWHSQDGAGSSYLSQGLRYEEDKKELVVDSPGLYYVFLELKLSPTFTNTGHKVQGWVSLVLQAKPQVDDFDNLALTVELFPCSMENKLVDRSWSQLLLLKAGHRLSVGLRAYLHGAQDAYRDWELSYPNTTSFGLFLVKPDNPWEGGGGSGGGGSRTEPRPALTITTSPNLGTRENNADQVTPVSHIGCPNTTQQGSPVFAKLLAKNQASLSNTTLNWHSQDGAGSSYLSQGLRYEEDKKELVVDSPGLYYVFLELKLSPTFTNTGHKVQGWVSLVLQAKPQVDDFDNLALTVELFPCSMENKLVDRSWSQLLLLKAGHRLSVGLRAYLHGAQDAYRDWELSYPNTTSFGLFLVKPDNPWEGGGGSGGGGSRADAAPTVSIFPPSSEQLTSGGASVVCFLNNFYPKDINVKWKIDGSERQNGVLNSWTDQDSKDSTYSMSSTLTLTKDEYERHNSYTCEATHKTSTSPIVKSFNRNECVPRDCGCKPCICTVPEVSSVFIFPPKPKDVLTITLTPKVTCVVVAISKDDPEVQFSWFVDDVEVHTAQTKPREEQINSTFRSVSELPIMHQDWLNGKEFKCRVNSAAFGAPIEKTISKTKGRPKAPQVYTIPPPKEQMAKDKVSLTCMITNFFPEDITVEWQWNGQPAENYDNTQPIMDTDGSYFVYSDLNVQKSNWEAGNTFTCSVLHEGLHNHHTEKSLSHSPGK chain 2: RTEPRPALTITTSPNLGTRENNADQVTPVSHIGCPNTTQQGSPVFAKLLAKNQASLSNTTLNWHSQDGAGSSYLSQGLRYEEDKKELVVDSPGLYYVFLELKLSPTFTNTGHKVQGWVSLVLQAKPQVDDFDNLALTVELFPCSMENKLVDRSWSQLLLLKAGHRLSVGLRAYLHGAQDAYRDWELSYPNTTSFGLFLVKPDNPWEGGGGSGGGGSAKTTPPSVYPLAPGSAAQTNSMVTLGCLVKGYFPEPVTVTWNSGSLSSGVHTFPAVLQSDLYTLSSSVTVPSSTWPSQTVTCNVAHPASSTKVDKKIVPRDC heavy: EVQLLESGGGLVQPGGSLRLSCAASGFTFSSHAMSWVRQAPGKGLEWVSAIWASGEQYYADSVKGRFTISRDNSKNTLYLQMNSLRAEDTAVYYCAKGWLGNFDYWGQGTLVTVSSAKTTPPSVYPLAPGSAAQTNSMVTLGCLVKGYFPEPVTVTWNSGSLSSGVHTFPAVLQSDLYTLSSSVTVPSSTWPSQTVTCNVAHPASSTKVDKKIVPRDCGCKPCICTVPEVSSVFIFPPKPKDVLTITLTPKVTCVVVAISKDDPEVQFSWFVDDVEVHTAQTKPREEQINSTFRSVSELPIMHQDWLNGKEFKCRVNSAAFGAPIEKTISKTKGRPKAPQVYTIPPPKKQMAKDKVSLTCMITNFFPEDITVEWQWNGQPAENYKNTQPIMKTDGSYFVYSKLNVQKSNWEAGNTFTCSVLHEGLHNHHTEKSLSHSPGK light: EIVLTQSPGTLSLSPGERATLSCRASQSVSRSYLAWYQQKPGQAPRLLIIGASTRATGIPDRFSGSGSGTDFTLTISRLEPEDFAVYYCQQGQVIPPTFGQGTKVEIKRADAAPTVSIFPPSSEQLTSGGASVVCFLNNFYPKDINVKWKIDGSERQNGVLNSWTDQDSKDSTYSMSSTLTLTKDEYERHNSYTCEATHKTSTSPIVKSFNRNEC | 0.54 nM | 6.9 nM | 5.63 nM | 0.42 nM |  |  |  |  |  |  |
| wild-type humanized anti-human CD19 antibody (var.0) (antibody, V domains shown, humanized 8B8; also called variant 0; wt) VH: QVQLVQSGAEVKKPGASVKVSCKASGYTFTDYIMHWVRQAPGQGLEWMGYINPYNDGSKYTEKFNGKATMTSDTSISTAYMELSRLRSDDTAVYYCARGTYYYGSALFDYWGQGTTVTVSS VL: DIVMTQTPLSLSVTPGQPASISCKSSQSLENSNGNTYLNWYLQKPGQSPQLLIYRVSKRFSGVPDRFSGSGSGTDFTLKISRVEAEDVGVYYCLQLTHVPYTFGQGTKLEIK |  |  |  |  | 0.313 µg/mL |  |  |  |  |  |
| humanized anti-human CD19 antibody var.5 (S27eP), named clone 8B8-018 (antibody, V domains shown, 5 is named clone 8B8-018; also called variant 5) VH: QVQLVQSGAEVKKPGASVKVSCKASGYTFTDYIMHWVRQAPGQGLEWMGYINPYNDGSKYTEKFQGRVTMTSDTSISTAYMELSRLRSDDTAVYYCARGTYYYGSALFDYWGQGTTVTVSS VL: DIVMTQTPLSLSVTPGQPASISCKSSQSLENPNGNTYLNWYLQKPGQSPQLLIYRVSKRFSGVPDRFSGSGSGTDFTLKISRVEAEDVGVYYCLQLTHVPYTFGQGTKLEIK |  |  |  |  | 0.255 µg/mL | 0.084 µg/mL | 6 nM | 43.6 min | 99% | 95% |
| humanized anti-human CD19 antibody var.9 (S27eP/N28S) (antibody, V domains shown, also called variant 9) VH: QVQLVQSGAEVKKPGASVKVSCKASGYTFTDYIMHWVRQAPGQGLEWMGYINPYNDGSKYTEKFQGRVTMTSDTSISTAYMELSRLRSDDTAVYYCARGTYYYGSALFDYWGQGTTVTVSS VL: DIVMTQTPLSLSVTPGQPASISCKSSQSLENPSGNTYLNWYLQKPGQSPQLLIYRVSKRFSGVPDRFSGSGSGTDFTLKISRVEAEDVGVYYCLQLTHVPYTFGQGTKLEIK |  |  |  |  | 0.435 µg/mL | 0.089 µg/mL | 45 nM | 4 min | 87% |  |
